Test: soluble on expression in E. coli; label from the status in PepcDB or PDB records

Sequence	soluble on expression in E. coli
MEERDRVKITDRLARPLRDLRLSVIDQCNFRCVYCMPAEVFGPNFRFLAEDQLLTVEEMALLAECFVELGVEKIRLTGGEPLLRRDLDALIERLSALPGLRDIGLTTNGVHLVKWAQRLKAAGLKRVNVSLDALDDDIFRKMNGIGVGAAPVLKGIEAALAAGLGVKVNMVVKKGWNDSQIVPMAAYFKDLGIPLRLIEFMDVGTTNGWDYSHVVTKKEMYEQINAMHPLEPVEKEYFGEVASRYRYAGTNVEVGFIASVTETFCQSCTRARISADGKLYTCLFASKGVSLKDKLRAGEGKEEIKALITTVWNRRTDRYSEERTAETAKQRPKIEMSYIGG	not soluble
MSEGLSFVIQRHQARRLHYDFRLEIDGVLVSWAVPKGPSRDPSVKRLAVHVEDHPLEYGGFSGDIPKGQYGAGHVDIWDSGVWIPRGDPRQGLRRGKLHFALRGRRLAGDWVLVRMSGEQDQWLLRKEDDEALEHHHHHH	not soluble
MCSLLKLLKISGKSVSDDDPIERYIKCEQCKCKRHWVEQLQRDEMDQMLHRLQFENKQLRKELEWKRGAASTMEIDRSSKRHQERHQSESRGGTLPLRNGRSVVSLKSTQSQNDVMDEAKALRLHKQRLEHRSRILEQQNEQLEMQLQRLKKVIDAQKQQAPLSTNSLLRGSHHQPWSPERARSGSASTLDRGLIVSSRHQEQAEAAGGGAEDSSDEAGGAGGGPRGSSVGQMQNLMTACDDLGKAMESLVVSVVYDSDDEEND	not soluble
MGSDKIHHHHHHMSQIPVAEKLVGALSSGLAVLRYLAGMPTPVGVTRVARDLELNSSTCFNLLKTLVHEGLVTFDERTKTYTIGIGLVELAKGALDQASFARLLRPQLESIAQQHKVTATLWERTRNERVVLVDLADNPAAMRVHMSIGQRLPMYLAALGRCMAAYSELSADELRTRIESFRWENAPSFEEYYAEVQDVKERGYAVDNGNYVKGVTTVSAPVIDANKRAVMAISAVSFSAQLNRAAIRALGEDLGARAIEASRAISGRVRAA	not soluble
MADIGSTYNGPLSSHWFPEELAQWEPDSDPDAPFNRSHVPLEPGRVADRVNANADTDAHLVSLSALNRHTSGVPSQGAPVFYENTFSYWHYTDLMVYWAGSAGEGIIVPPSADVIDASHRNGVPILGNVFFPPTVYGGQLEWLEQMLEQEEDGSFPLADKLLEVADYYGFDGWFINQQTEGADEGTAEAMQAFLVYLQEQKPEGMHIMWYDSMIDTGAIAWQNHLTDRNKMYLQNGSTRVADSMFLNFWWRDQRQSNELAQALGRSPYDLYAGVDVEARGTSTPVQWEGLFPEGEKAHTSLGLYRPDWAFQSSETMEAFYEKELQFWVGSTGNPAETDGQSNWPGMAHWFPAKSTATSVPFVTHFNTGSGAQFSAEGKTVSEQEWNNRSLQDVLPTWRWIQHGGDLEATFSWEEAFEGGSSLQWHGSLAEGEHAQIELYQTELPISEGTSLTWTFKSEHGNDLNVGFRLDGEEDFRYVEGEQRESINGWTQWTLPLDAFAGQTITGLAFAAEGNETGLAEFYIGQLAVGADSEKPAAPNVNVRQYDPDPSGIQLVWEKQSNVHHYRVYKETKHGKELIGTSAGDRIYLEGLVEESKQNDVRLHIEALSETFVPSDARMIDIKSGSF	soluble
MVINQNEAHAIQRIDSDEEPTVSVVDVVATVATPHFDEPLKRKWRLKCAEYGTFMASLLDTDFAEHVTAHQVRCDGVRFKVKLRVEEAKGRSPRFEILAMSPEDSSGVQTLL	not soluble
SASHQEQSYKAGETRGKAQEKTGEAMGTMGDKTQAAKDKTQETAQSAQQKAHETAQSAKDKTSQAAQTTQERAQESKDKTGSYMSETGEAIKNKAHDAAEYTKETAEAGKEKTSGILGQTGEQVKQMAMGATDAVKHTLGLRTDEGNKEHVSSAPSTTTTTTTRETQRK	soluble
MELNMLYLFTASNDSAIKNLEATIEKIYPISTCLADLDADTVTKLKDNELHENVCMWGATPGSSNVDRWEKLKEGDRILAYSKGEFKFFGTIFAKTHNPDVARKI	not soluble
MGSDKIHHHHHHKDNTKVIAHRGYWKTEGSAQNSIRSLERASEIGAYGSEFDVHLTADNVLVVYHDNDIQGKHIQSCTYDELKDLQLSNGEKLPTLEQYLKRAKKLKNIRLIFELKSHDTPERNRDAARLSVQMVKRMKLAKRTDYISFNMDACKEFIRLCPKSEVSYLNGELSPMELKELGFTGLDYHYKVLQSHPDWVKDCKVLGMTSNVWTVDDPKLMEEMIDMGVDFITTDLPEETQKILHSRAQ	not soluble
MSLGFVPVRGLHHFAYRCRDAEETRQFYEGILGLPLVHVVRAEEVPSTGEYCPYMHLFFEMKDGSCVAFFDLDDDTVPLPSSNTPVWAQHLALRVDSVAAVEEAKRKLEQAGVKVLGPVDHDGFVCSIYFFDPNGVRLELTTDTADSTEMARYRREARPGCDAWTLEKSLRRATGQGSVLREGHHHHHH	not soluble
SLATRRPMSIAEPDTAVSTASFMTAWEFPQGDDSAETPTTPKALQFQEPEYIHIPWDHNTDIAPDLMDLCHVVDDRTKAGKRVLIHCQQGASRSASLIIAYGLFQRPELTVNDAYYAAQAKSQWISPNMKLMYSLQDFQKEVSTKRTAQPSNREG	not soluble
KILEREFSMNEQLFKDLFDRAVDGIVLFDKDGGFIDANLSFCKSFEINHNELSHLSLYEFIDSGSRKDFDNIWKALNRKGKAKGELPVKLRSGVQKLFEFTITSNIISGFYMSIMRDIT	not soluble
MSTAYEVQCRGLPWEATEQELRDFFGNNGIESLEIPRRNGRTSGDAKVVFTNEEDYNNALKKDREHLGSRYIEVFPAGGAPTRRGDRGERGDRGDRDHYRSRGAPPRDRYSDRGGPRSSGPDSIVRLRGLPFSVTSRDISDFLAPLPIVRDGILLPDQQRARPGGEAYVCFETMESVQIAKQRHMKNIGHRYIEVFEATHRDLSRFAEENDLRVPRFGPPPFASAPQTAPRGAYDPYSQPTDPYRNATDYRRAAEPEDPYARSRAPSVQDYGVRASYDPYTQPAAPVSSYPSQQQPSAGYYDNYAPKTAYESYGRERGPDPRDVRDPRDSRMPDPRDSRALSDPYAAESRYSEYGYESREPYWRGGSGGPPSIGGGVGGGGAPLAPTGRDPYSVGESWANGAGGPGGPPPVSSDRDRYGSGGYASEPYAQREAGGAMRRSEYGRPDDRYSKPEPYGYSRDRDYGAPQNQHFVLRMRGVPFRASEADVYDFFHPIRPNQVELLRDHQFQRPSGDARVIFYNRKDYDDALMKDKQYMGERYIEMIPDNGRY	not soluble
MSLTQTAFRSQLLTFNGDPAQSSQAAIYETDGLLIVDDGKVVAAGPYAQLAATLARDAIVHELRDKLIVPGFIDTHIHYPQTDMIASPAPGLLPWLDKYTFPTERQFGDPEHAREVADFFVDELLACGTTSALVYCTVHKQSADALFAASDARDLRMIAGKVLMDRNCPEFLRDTAQSGYDDSAELIDRWHGKGRQMYALTPRFAPTSTEAQLEACGELARRHPDVFVQSHVAENVDEVKWVGELFPGHRSYLDIYDRYGLLRPRAVYGHCIHLDDEDRRRMAETRTVVAHCPTSNFFLGSGLFDFDKAGEYDVPVTLATDVGGGTSFSMLQTMNEAHKVARLSGHHLTATRMFWLATAGAAQALDLADTVGTLAPRTEADFVVLDPQATPLLARRTKRADSLEELLFAFALLGDDRAVYRTYAAGQLVHERGAAPRPAAEGHHHHHH	soluble
SERLTSPPRLMIVSDLDETMVDHHKDPENLALLRFNSLWEDAYRHDSLLVFSTGRAQTMYKKLRKEKPLLTPDVIITSVGTEIAYGNSMVPDDNWVEILNKKWDRGIVQEETSKFPELTLQGETEQRPHKLSFNIDKSKVKAVTKELSPRLEKRGVDVKFIFSGGNAFDVLAKGGGKGQALAYLLKKLKTEGKLPINTLACGDSGNDTELFTIPNVYGVMVSNAQEELLEWYAENAKDNANIIHASERCAGGITQAIGHFKLGPNLSPRDVSDFLECKADNVNPGHEVVKFFLFYERWRRGEVENCTTYTSSLKASCHPSGVFVHPSGAEKSLRDTIDELGKYYGDKKGKKFRVWTDQVLATDTTPGTWIVKLDKWEQTGDERKCCTTTVKFTSKEGEGFVWEHVQQIWSEETEIKDDSNWII	not soluble
EPNTPFGHTPPKGLPQDEAALDIEDAVHGALEGAGFVHYETSAFAKPAMQCRHNLNYWQFGDYLGIGAGAHGKISYPDRIERTVRRRHPNDYLALMQSQPSEAVERKTVAAEDLPFEFMMNALRLTDGVPAAMLQERTGVPSAKIMAQIETARQKGLLETDPAVFRPTEKGRLFLNDLLQCFL	not soluble
